From publication PMC7380067
Where a chain is given by its changes, count along the chain named.

Key:
[1] = target: T1, AgrR-His6 (Cupriavidus metallidurans NA4) (UniProt Q1LMJ6); assay: EMSA; details: 25 mM Na2HPO4, 150 mM NaCl, 0.1 mM EDTA, 2 mM MgCl2, 1 mM DTT, 10% glycerol, pH 7.0, 22 C, about 0.1 nM probe, 25 ug/ml sonicated salmon sperm DNA
T1 sequence: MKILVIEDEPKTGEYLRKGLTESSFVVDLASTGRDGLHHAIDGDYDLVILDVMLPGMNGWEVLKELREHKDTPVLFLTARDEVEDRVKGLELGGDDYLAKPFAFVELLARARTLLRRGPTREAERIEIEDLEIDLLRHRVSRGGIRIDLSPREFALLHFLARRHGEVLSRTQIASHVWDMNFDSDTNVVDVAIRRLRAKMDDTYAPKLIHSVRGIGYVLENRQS

[2] = target: T1, AgrR-His6 (Cupriavidus metallidurans NA4); assay: in gel (OP)2-Cu+ footprinting; details: 25 mM Na2HPO4, 150 mM NaCl, 0.1 mM EDTA, 2 mM MgCl2, 1 mM DTT, 10% glycerol, pH 7.0, 22 C, about 0.1 nM probe, 25 ug/ml sonicated salmon sperm DNA
[3] = target: T2, MBP-AgrR D51A D51A (Cupriavidus metallidurans NA4) (UniProt Q1LMJ6); assay: DNase I footprinting; details: 25 mM Na2HPO4, 150 mM NaCl, 0.1 mM EDTA, 2 mM MgCl2, 1 mM DTT, 10% glycerol, pH 7.0, 22 C, about 0.1 nM probe, 25 ug/ml sonicated salmon sperm DNA
T2 sequence: T1 sequence with D51A

[4] = target: T1, AgrR-His6 (Cupriavidus metallidurans NA4); assay: DNase I footprinting; details: 25 mM Na2HPO4, 150 mM NaCl, 0.1 mM EDTA, 2 mM MgCl2, 1 mM DTT, 10% glycerol, pH 7.0, 22 C, about 0.1 nM probe, 25 ug/ml sonicated salmon sperm DNA
[5] = target: T2, MBP-AgrR D51A D51A (Cupriavidus metallidurans NA4); assay: EMSA; details: 25 mM Na2HPO4, 150 mM NaCl, 0.1 mM EDTA, 2 mM MgCl2, 1 mM DTT, 10% glycerol, pH 7.0, 22 C, about 0.1 nM probe, 25 ug/ml sonicated salmon sperm DNA
[6] = target: T3, MBP-AgrR D51E D51E (Cupriavidus metallidurans NA4) (UniProt Q1LMJ6); assay: EMSA; details: 25 mM Na2HPO4, 150 mM NaCl, 0.1 mM EDTA, 2 mM MgCl2, 1 mM DTT, 10% glycerol, pH 7.0, 22 C, about 0.1 nM probe, 25 ug/ml sonicated salmon sperm DNA
T3 sequence: T1 sequence with D51E

[7] = target: T2, MBP-AgrR D51A D51A (Cupriavidus metallidurans NA4); assay: premodification binding interference (depurination, depyrimidination, DMS methylation); details: 25 mM Na2HPO4, 150 mM NaCl, 0.1 mM EDTA, 2 mM MgCl2, 1 mM DTT, 10% glycerol, pH 7.0, 22 C, about 0.1 nM probe, 25 ug/ml sonicated salmon sperm DNA
[8] = tested on: AgrR-His6 (Cupriavidus metallidurans NA4); assay: EMSA; details: 25 ug/ml salmon sperm DNA; 25 mM Na2HPO4, 150 mM NaCl, 0.1 mM EDTA, 2 mM MgCl2, 1 mM DTT, 10% glycerol, pH 7.0, 22 C, about 0.1 nM probe, 25 ug/ml sonicated salmon sperm DNA
[9] = tested on: MBP-AgrR D51A (Cupriavidus metallidurans NA4); assay: EMSA; details: 25 ug/ml salmon sperm DNA; 25 mM Na2HPO4, 150 mM NaCl, 0.1 mM EDTA, 2 mM MgCl2, 1 mM DTT, 10% glycerol, pH 7.0, 22 C, about 0.1 nM probe, 25 ug/ml sonicated salmon sperm DNA

“AGGACGTTATCAGGGGTGGTGCGAGCCATGTCAAATTCCATTGATTCTTGTTCCCTGTCATTGAAGACCCTTTAGTCGCTACAGGGTCAAGCGCCTGCCGAAAATCTTTGGAGCGGCGCAAACATGACATGAACGTAATGTTTGCCCGCTCGCTAAACGCCTATAATCGCC (double strand) [czcI2 promoter]” was tested, and the binding [1] was “binds more weakly”.

For “ATGGGTTACGGGTTGTTCACGGCTTGCTGGAGAGTCTGATCGGTCGTTGCGCGACCTTGGAATGCAGTCTAGAGGGCGGGTCCCGACGCGAACATGACCCTTGAATGACATTGATGTCATTTGTCCGAGGCAATGCGATACGATTGCCGGACAGGGTGCCGACCGGACAATGAATTCGGCCTTGGCGACAAATCCACGCCAAACAAC (double strand) [prsQ2 promoter/operator]”, the binding [2] was “binds” and the Kd [1] was 1.6 µM.

In the case of “ATTGGAGCGGCGAGTATAGAAATGCCGACATTTCGTTTCGATTGCGGCGAGATTACAGCCGCATCGTTCCGGGCGCGGGCAGGCAGAAAAGGAGGGCGCGAGAGAAGGGCGAGAGAAGGGCGAGGGAAGGGCGGGACTACCCCGCGCCTTGGGTGCGGGGCCTGTGTCGGGTCAATCGACCCAGTTCACCTT (double strand) [ompC-like promoter]”, the binding [1] is reported as “binds more weakly”.

With “GTGTCCTCGTCAAACCAATGCACCCGGGCCCCGTGCCCGGAAAACGCCGCAAGTGTACGCCGCGGTCCGAACATGACGCGGACATTACCGGAATGTAATTTTTGGGTCATTAGGTGGTTACCGCGCCCTGACTACTCTGTGCTCGCTGCGCCATTTTGCTGGCGCGATTTCACAATGAGAA (double strand) [copA2-copR2 intergenic region]” the binding [2] was “binds”, the Kd [1] was 2.1 µM and the binding [3] was “binds”. For the same substance, the binding [4] was “binds”.

With “GTTTTCATCCTCAGCTGCACGGGCTCACAGCTCAAACGATGCCGCCGATGATAACGGCGCAGGTTCGCCTATTGGATGACAAGACTGTAATCGTTTCGTCCCCGTTTGAAAGGGTGTTGCGTACATAGAATCGCCGCTAATTCTGGATGACCGGCGCCGACAGCGCCTGGAGTGAACCATGTGGATTGTGC (double strand) [agrR control region]” the binding [2] was “binds”, the Kd [5] was 1600 nM and the binding [6] was “binds more weakly”. For the same substance, the Kd [1] was 16.5 µM, the binding [3] was “binds” and the binding [4] was “binds”. The binding [7] was “binds”.

“TAGAACTGCCTGTGTTGAGCAGTTGCAGCATTGTACTGCCTCTAACGGTTGCAAAATGGCTATATCAAGATGACATTCGTGCAATGTTCGCCAATTCGTGGCAAAGCTCCGCTAGTGTCTCGGTCTATATCCAGAACCTCGAATAATGGGCCGGTACCAA (double strand) [czcL-czcR2 intergenic region]” showed a Kd [1] of 26.5 µM.

With “TGAAGCCGATCCATGACATAGTCTCCCTGTTCACCGGTGAATTTTTACACGATCCGGGTGATTTATTGTTGAAAGCACAACCAATCATTGTGGACGGCGCTATTTATTCATATCAGGGAAATGCCTAATATCGCACCATCTGATGCCGCATTGCAGCACCGGTCCTGGGACCACCGGCATCCTTGAATGTGAAAGAGGATTCCATCATG (double strand) [prsQ1 promoter]” the binding [1] was “no binding”.

agrR control region was tested, and the Kd [8] was 16.5 µM and the Kd [9] was 1600 nM.

For copA2-copR2 intergenic region, the Kd [8] was 2.1 µM.

With czcL-czcR2 intergenic region the Kd [8] was 26.5 µM.

For prsQ2 promoter/operator, the Kd [8] was 1.6 µM.
